The numbers were not newly measured in PMC3773300 (Journal of inorganic biochemistry, 2013), which cites them from elsewhere.

For this series the following is noted: Mb.

Take “Mb: Myoglobin, heme protein involved in reversible O2 binding”: the redox potential is 59 mV.
